Assay results taken from publication PMC2797447 (Blood cells, molecules & diseases, 2009).

Biological target: the molecule itself
Experiment: cross-linking

B1: mouse Kcc1 K-Cl cotransporter (natural protein, UniProt Q9JIS8 1-1085, looked up)
chain: MPHFTVVPVDGPRRGDYDNLEGLSWVDYGERAEREDSDGQGNHRENSPFLCPLDASRGNDYYDRNLALFEEELDIRPKVSSLLGKLVSYTNLTQGAKEHEEAESGEGGRRRAAKAPSMGTLMGVYLPCLQNIFGVILFLRLTWMVGTAGVLQALLIVLICCCCTLLTAISMSAIATNGVVPAGGSYFMISRSLGPEFGGAVGLCFYLGTTFAAAMYILGAIEILLTYIAPPAAIFYPSGTHDMSSATLNNMRVYGTIFLTLMTLVVFVGVKYVNKFASLFLACVIISILSIYAGGIKSIFDPPVFPVCMLGNRTLSRDQFDICAKTVVVDNETVATRLWTFFCHSPNLTADSCDPYFLLNNVTEIPGIPGAAAGVLQENLWSAYLEKGEVVEKHGLPSTDTLGLKESLSLYVVADIATSFTVLVGIFFPSVTGIMAGSNRSGDLRDAQKSIPVGTILAIVTTSLVYFSSVILFGACIEGVVLRDKYGDGVSRNLVVGTLAWPSPWVIVVGSFFSTCGAGLQSLTGAPRLLQAIAKDNIIPFLRVFGHGKANGEPTWALLLTALIAELGILIASLDMVAPILSMFFLMCYLFVNLACAVQTLLRTPNWRPRFKYYHWTLSFLGMSLCLALMFVSSWYYALVAMLIAGMIYKYIEYQGAEKEWGDGIRGLSLSAARYALLRLEEGPPHTKNWRPQLLVLLKLDEDLHVKYPRLLTFASQLKAGKGLTIVGSVIQGSFLESYGEAQAAEQTIKNMMDIEKVKGFCQVVVASKVREGLAHLIQSCGLGGMRHNSVVLGWPYGWRQSEDPRAWKTFIDTVRCTTAAHLALLVPKNIAFYPSNHERYLDGHIDVWWIVHDGGMLMLLPFLLRQHKVWKKCRMRIFTVAQMDDNSIQMKKDLAIFLYHLRLEAEVEVVEMHNSDISAYTYERTLMMEQRSQMLRQMRLTKTERDREAQLVKDRHSALRLESLYSDEEEESVAGADKIQMTWTRDKYMAEPWDPSHAPDNFRELVHIKPDQSNVRRMHTAVKLNEVIVTRSHDARLVLLNMPGPPKNSEGDENYMEFLEVLTEGLERVLLVRGGGREVITIYS
- stoichiometry N: ~2
